Laboratory results reported in PMC4646087 (Journal of molecular biology, 2015).
Where two headings read alike, the source gives them in different places.

Assays:
[1] = molecular target: T1, TOG2-SR construct of human CLASP2 (human); test: ITC
T1 sequence (O75122 whole entry, looked up): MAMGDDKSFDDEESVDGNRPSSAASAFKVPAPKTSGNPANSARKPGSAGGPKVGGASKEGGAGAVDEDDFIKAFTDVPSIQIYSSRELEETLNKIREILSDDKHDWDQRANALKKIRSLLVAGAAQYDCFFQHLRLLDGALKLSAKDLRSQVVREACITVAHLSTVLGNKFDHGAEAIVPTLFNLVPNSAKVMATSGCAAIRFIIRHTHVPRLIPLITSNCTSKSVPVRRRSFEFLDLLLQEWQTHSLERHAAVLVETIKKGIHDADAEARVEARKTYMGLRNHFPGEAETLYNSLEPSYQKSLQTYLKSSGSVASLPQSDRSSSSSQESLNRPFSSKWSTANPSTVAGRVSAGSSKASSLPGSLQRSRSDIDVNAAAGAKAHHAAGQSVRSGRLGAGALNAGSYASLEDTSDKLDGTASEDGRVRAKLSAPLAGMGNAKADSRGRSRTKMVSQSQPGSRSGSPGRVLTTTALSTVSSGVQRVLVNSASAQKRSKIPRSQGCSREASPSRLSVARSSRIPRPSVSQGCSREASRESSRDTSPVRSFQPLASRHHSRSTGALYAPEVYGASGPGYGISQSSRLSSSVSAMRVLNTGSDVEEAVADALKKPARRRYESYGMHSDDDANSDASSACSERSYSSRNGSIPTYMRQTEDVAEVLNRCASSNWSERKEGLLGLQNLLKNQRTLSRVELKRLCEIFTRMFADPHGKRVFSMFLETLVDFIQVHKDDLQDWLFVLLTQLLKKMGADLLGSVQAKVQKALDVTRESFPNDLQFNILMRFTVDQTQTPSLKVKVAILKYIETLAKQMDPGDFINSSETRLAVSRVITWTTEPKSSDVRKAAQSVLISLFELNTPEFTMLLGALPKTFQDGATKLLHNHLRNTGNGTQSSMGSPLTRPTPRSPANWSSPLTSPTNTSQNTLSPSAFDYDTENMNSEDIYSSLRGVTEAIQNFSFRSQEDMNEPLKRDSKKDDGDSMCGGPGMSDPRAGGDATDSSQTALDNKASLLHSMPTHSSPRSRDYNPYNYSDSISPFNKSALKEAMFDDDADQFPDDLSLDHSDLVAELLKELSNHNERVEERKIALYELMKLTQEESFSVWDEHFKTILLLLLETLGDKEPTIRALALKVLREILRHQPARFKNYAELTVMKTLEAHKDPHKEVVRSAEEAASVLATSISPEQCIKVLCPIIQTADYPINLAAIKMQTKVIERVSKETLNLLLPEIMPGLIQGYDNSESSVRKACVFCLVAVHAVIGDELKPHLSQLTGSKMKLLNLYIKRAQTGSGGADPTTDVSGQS

[2] = molecular target: T2, SR-TOG3 construct of human CLASP2 (human); test: ITC
T2 sequence (O75122 whole entry, looked up): T1 sequence (O75122 whole entry, looked up)

[3] = molecular target: T3, SR region of human CLASP2 (residues 311-648) (human, UniProt O75122 311-648); test: ITC
T3 sequence (looked up): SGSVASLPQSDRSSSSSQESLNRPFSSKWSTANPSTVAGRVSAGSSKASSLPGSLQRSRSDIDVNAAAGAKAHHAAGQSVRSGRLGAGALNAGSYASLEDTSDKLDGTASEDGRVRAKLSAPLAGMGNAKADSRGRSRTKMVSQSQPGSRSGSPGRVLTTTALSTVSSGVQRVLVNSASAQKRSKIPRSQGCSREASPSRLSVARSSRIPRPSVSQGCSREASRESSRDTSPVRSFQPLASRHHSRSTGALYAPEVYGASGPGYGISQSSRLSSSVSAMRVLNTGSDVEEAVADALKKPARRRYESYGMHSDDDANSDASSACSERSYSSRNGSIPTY

[4] = molecular target: T3, SR region of human CLASP2 (residues …); test: ITC; remark: listed apart in the source
[5] = molecular target: αβ-tubulin heterodimer isolated from porcine brain (porcine) (UniProt P02550); test: co-sedimentation

Molecule: EB1 (dimeric) (from UniProt Q15691 1-268) (natural protein)
- Kd [1]: 2000 nM
- stoichiometry N (CLASP2 versus EB1 dimer) [1]: 2.2
- Kd [2]: 1200 nM
- stoichiometry N (CLASP2 versus EB1 dimer) [2]: 2

B1: EB1 (dimeric) (natural protein, UniProt Q15691 1-268, looked up)
chain: MAVNVYSTSVTSDNLSRHDMLAWINESLQLNLTKIEQLCSGAAYCQFMDMLFPGSIALKKVKFQAKLEHEYIQNFKILQAGFKRMGVDKIIPVDKLVKGKFQDNFEFVQWFKKFFDANYDGKDYDPVAARQGQETAVAPSLVAPALNKPKKPLTSSSAAPQRPISTQRTAAAPKAGPGVVRKNPGVGNGDDEAAELMQQVNVLKLTVEDLEKERDFYFGKLRNIELICQENEGENDPVLQRIVDILYATDEGFVIPDEGGPQEEQEEY
- Kd [3]: 2000 ± 400 nM
- stoichiometry N [3]: 2 CLASP2 versus EB1 dimer
- Kd [4]: 3000 ± 400 nM
- stoichiometry N [4]: 2 CLASP2 versus EB1 dimer

B2: human CLASP2 TOG3 domain (hC2-TOG3; residues 649-881) (domain or fragment)
chain: MRQTEDVAEVLNRCASSNWSERKEGLLGLQNLLKNQRTLSRVELKRLCEIFTRMFADPHGKRVFSMFLETLVDFIQVHKDDLQDWLFVLLTQLLKKMGADLLGSVQAKVQKALDVTRESFPNDLQFNILMRFTVDQTQTPSLKVKVAILKYIETLAKQMDPGDFINSSETRLAVSRVITWTTEPKSSDVRKAAQSVLISLFELNTPEFTMLLGALPKTFQDGATKLLHNHLRN
- fold affinity relative to hC2-TOG2 [5]: 3 fold
